In the data set the test system is XPC4.1 DNA target. As to the kind of experiment: In vitro single turn over cleavage assay with XPC4.1. Format: biochemical. How it is done: FIG. 8: In vitro cleavage of unmethylated or methylated XPC4.1 by XPC4. A constant amount of XPC4.1 duplex (50 nM) was incubated with an excess of XPC4 (1.5 μM, final concentration) in the reaction buffer (10 mM Tris-HCl, 150 mM NaCl, pH8) at 37° C. Cleavage reaction was triggered by the addition of MgCl2 and then stopped after different time lengths by the addition of the stop buffer. This was followed by one hour of incubation at 37° C. to digest XPC4 and release free DNA molecules. Cleaved and uncleaved DNA products were separated by PAGE using a TGX Any kD precast gel (Bio-Rad), stained with SYBR Green and then quantified using Quantity One software (Bio-Rad). […]
To investigate the influence of C1234 methylation on the nuclease activity of I-Cre I, in vitro single turn over cleavage assays were performed with either unmethylated or methylated C1234 duplexes (unmethylated C1234 composed of SEQ ID NO: 31+SEQ ID NO: 32, C1234_Me full composed of SEQ ID NO: 35+SEQ ID NO: 38, C1234_Me-6a/-5b composed of SEQ ID NO: 33+SEQ ID NO: 36, C1234_Me-3a/-2b composed of SEQ ID NO: 34+SEQ ID NO: 37, C1234_Me-3a composed of SEQ ID NO: 34+SEQ ID NO: 32, C1234_Me-2b composed of SEQ ID NO: 31+SEQ ID NO: 37, respectively). […] Cleaved and uncleaved DNA products were separated by PAGE using a TGX Any kD precast gel (Bio-Rad), stained with SYBR Green and then quantified using Quantity One software (Bio-Rad). […]

B1: XPC4: engineered meganuclease (SEQ ID NO: 2) designed to cleave xeroderma pigmentosum group C gene (XPC) (protein)
chain: MANTKYNEEFLLYLAGFVDGDGSIIAQIKPNQSHKFKHALQLTFKVTQKTQRRWFLDKLVDEIGVGYVQDSGSVSNYILSEIKPLHNFLTQLQPFLELKQKQANLALKIIEQLPSAKESPDKFLEVCTWVDQVAALNDSKTRKTTSETVRAVLDSLSEKKKSSPAAGGSDKYNQALSKYNQALSKYNQALSGGGGSNKKFLLYLAGFVDSDGSIIAQIKPNQSHKFKHQLSLAFQVTQKTQRRWFLDKLVDRIGVGYVRDRGSVSDYILSKIKPLHNFLTQLQPFLKLKQKQANLVLKIIEQLPSAKESPDKFLEVCTWVDQVAALNDSKTRKTTSETVRAVLDSLSEKKKSSP
The kcat is the maximal rate divided by the concentration of active sites. Take B1: the kcat runs as follows: (XPC4.1_Me −11a/−10b & +10a/+11b (fully methylated)) 0.0017 ± 0.00017 s⁻¹; (unmethylated XPC4.1) 0.0013 ± 0.00017 s⁻¹.

These data come from patent publication US20130196320A1, “METHOD FOR IMPROVING CLEAVAGE OF DNA BY ENDONUCLEASE SENSITIVE TO METHYLATION” (CELLECTIS, priority 2010, published 2013).
